What all share (assay): receptor-Fc IP
Test [1] concerns the target T1, VEGFR-2-Fc (UniProt P35968 20-322).
T1 construct: domain: first 3 Ig domains; conditioned supernatant of 293T cells; also called VEGFR-2-Fc fusion protein; not shown: Fc fragment of the pIg vector
As for the experimental part:
(§1) The binding assay procedure was identical to the immunoprecipitation using pentahistidine antibody described in Example 2, apart from the composition of the immunoprecipitation (IP) mixes. The IP mixes used for the receptor binding analysis were as follows: For VEGFR-1 binding assays, the IP mix was phosphate buffered saline (PBS) containing 1.5% BSA, 0.06% Tween 20, 3 μg/ml heparin and 400 ng/ml VEGFR-1-Fc fusion protein (100 μl of this IP mix was added to 200 μl of sample supernatant); for VEGFR-2 binding assays, the IP mix was 82% conditioned cell supernatant from 293T cells transiently expressing VEGFR-2-Fc fusion protein in mixture with 18% of a PBS solution that contained 5% BSA, 0.2% Tween 20, and 10 μg/ml heparin (250 μl of IP mix was added to 200 μl of sample supernatant); and for VEGFR-3 binding assays, the IP mix was 82% conditioned cell supernatant from 293T cells transiently expressing VEGFR-3-Fc fusion protein, 18% of PBS containing 5% BSA, 0.2% Tween 20, and 10 μg/ml heparin (250 μl of IP mix was added to 200 μl of sample supernatant).

The target in test [2] is T2, VEGFR-3-Fc (UniProt P35916 25-328).
T2 construct: domain: first three Ig domains; conditioned supernatant of 293T cells; also called VEGFR-3-Fc fusion protein; not shown: Fc fragment of the pIg vector
T2 sequence (looked up): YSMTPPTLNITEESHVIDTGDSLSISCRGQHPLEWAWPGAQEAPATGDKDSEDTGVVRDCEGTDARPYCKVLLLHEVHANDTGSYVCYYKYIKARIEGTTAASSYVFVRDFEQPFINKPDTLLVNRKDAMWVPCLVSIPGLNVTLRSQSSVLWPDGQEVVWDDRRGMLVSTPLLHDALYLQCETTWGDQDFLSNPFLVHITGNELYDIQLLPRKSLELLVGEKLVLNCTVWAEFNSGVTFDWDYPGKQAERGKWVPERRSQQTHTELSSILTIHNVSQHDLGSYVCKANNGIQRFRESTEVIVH
As for the experimental part: as §1

Test [3] deals with T3, VEGFR-1-Fc (UniProt P17948 27-338).
T3 construct: domain: first three Ig domains; expressed in Drosophila S2 cells, purified on Protein A sepharose; also called VEGFR-1-Fc fusion protein; not shown: Fc fragment from the Signal-pIgPlus vector
On the procedure: as §1

T3 sequence (P17948 27-338): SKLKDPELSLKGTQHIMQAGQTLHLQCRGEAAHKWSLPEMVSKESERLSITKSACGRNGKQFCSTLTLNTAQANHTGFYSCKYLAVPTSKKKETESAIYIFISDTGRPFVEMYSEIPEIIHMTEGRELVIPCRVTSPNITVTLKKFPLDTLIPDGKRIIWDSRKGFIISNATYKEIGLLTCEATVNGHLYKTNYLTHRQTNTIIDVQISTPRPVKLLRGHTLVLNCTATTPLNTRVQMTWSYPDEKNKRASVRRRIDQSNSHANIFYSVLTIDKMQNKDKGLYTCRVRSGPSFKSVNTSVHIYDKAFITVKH
T1 sequence (P35968 20-322): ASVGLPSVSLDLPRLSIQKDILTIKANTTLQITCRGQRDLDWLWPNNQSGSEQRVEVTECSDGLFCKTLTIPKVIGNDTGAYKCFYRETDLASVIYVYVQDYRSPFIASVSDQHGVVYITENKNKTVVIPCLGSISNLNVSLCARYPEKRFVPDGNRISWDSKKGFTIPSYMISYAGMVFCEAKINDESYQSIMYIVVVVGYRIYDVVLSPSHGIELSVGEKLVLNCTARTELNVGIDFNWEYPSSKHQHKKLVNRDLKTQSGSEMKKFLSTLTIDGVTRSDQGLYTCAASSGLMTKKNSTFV

B1: 41-3 (ligand)
chain: AHYNTEILKFMDVYQRSYCHPREVCIDVGKEYPDEIEYIFKPSCVPLMRCGGCCNSEGLQCVPTEESNITMQIMRIKPHQGQHIGEMSFLQHNKCECRPKKD
For B1, the binding result in test [1], in test [2] and in test [3] was “no binding” each time.

B2: 41-1 (ligand)
chain: AHYNTEILKFMDVYQRSYCHPREVCIDVGKEYPDEIEYIFKPSCVPLMRCGGCCNDEGLECVPTEESNITMQIMRIKPHQGQHIGEMSFLQHNKCECRPKKD
In the case of B2, the results for the binding result in test [1], in test [2] and in test [3] were “no binding”, “no binding” and “binds”, respectively.

B3: 42-3 (ligand)
chain: AHYNTEILKFMDVYQRSYCHPREVCIDVGKEFGVATNTFFKPPCVSVYRCGGCCNSEGLQCVPTEESNITMQIMRIKPHQGQHIGEMSFLQHNKCECRPKKD
As to B3, the binding result in test [1], in test [2] and in test [3] was “no binding” each time.

B4: 43-3 (ligand)
chain: AHYNTEILKFMDVYQRSYCHPREVCIDVGKEYPDEIEYIFKPPCVSVYRCGGCCNSEGLQCVPTEESNITMQIMRIKPHQGQHIGEMSFLQHNKCECRPKKD
Take B4: the binding result in test [1], in test [2] and in test [3] was “no binding” throughout.

B5: 41-5 (ligand)
chain: AHYNTEILKFMDVYQRSYCHPREVCIDVGKEYPDEIEYIFKPSCVPLMRCGGCCNDEGLECVPTEESNITMQIMRIKPHQGQHIGEMSFANHTSCRCMSKLD
Consider B5, for which the binding result in test [1], in test [2] and in test [3] was “no binding” each time.

B6: 43-1 (ligand)
chain: AHYNTEILKFMDVYQRSYCHPREVCIDVGKEYPDEIEYIFKPPCVSVYRCGGCCNDEGLECVPTEESNITMQIMRIKPHQGQHIGEMSFLQHNKCECRPKKD
For B6, the binding result was “no binding” in test [1], “no binding” in test [2] and “binds” in test [3].

B7: 72-11 (ligand)
chain: GQNHHEVVKSIDNEWRKTQCMPREVCIDVGKEFGVATNTFFKPPCVSVYRCGGCCNSEGLQCVPTEESNITMQIMRITVPLSQGPKPVTISFLQHNKCECRPKKD
Consider B7, for which the binding result in test [1], in test [2] and in test [3] was “no binding” each time.

B8: 73-13 (ligand)
chain: GQNHHEVVKSIDNEWRKTQCMPREVCIDVGKEYPDEIEYIFKPPCVSVYRCGGCCNDEGLECVPTEESNITMQIMRITVPLSQGPKPVTISFANHTSCRCMSKLD
As to B8, the binding result in test [1], in test [2] and in test [3] was “no binding” throughout.

B9: 73-11 (ligand)
chain: GQNHHEVVKSIDNEWRKTQCMPREVCIDVGKEYPDEIEYIFKPPCVSVYRCGGCCNSEGLQCVPTEESNITMQIMRITVPLSQGPKPVTISFLQHNKCECRPKKD
For B9, the binding result in test [1], in test [2] and in test [3] was “no binding” each time.

B10: 74-9 (ligand)
chain: GQNHHEVVKSIDNEWRKTQCMPREVCIDVGKEFGVATNTFFKPSCVPLMRCGGCCNDEGLECVPTEESNITMQIMRITVPLSQGPKPVTISFLQHNKCECRPKKD
With B10, the binding result in test [1], in test [2] and in test [3] was “no binding” each time.
